# Reference: IntAct's records for PubMed 15893672
# B1: Angiopoietin-2 (Homo sapiens), O15123-1 (parent)
# chain: MWQIVFFTLSCDLVLAAAYNNFRKSMDSIGKKQYQVQHGSCSYTFLLPEMDNCRSSSSPYVSNAVQRDAPLEYDDSVQRLQVLENIMENNTQWLMKLENYIQDNMKKEMVEIQQNAVQNQTAVMIEIGTNLLNQTAEQTRKLTDVEAQVLNQTTRLELQLLEHSLSTNKLEKQILDQTSEINKLQDKNSFLEKKVLAMEDKHIIQLQSIKEEKDQLQVLVSKQNSIIEELEKKIVTATVNNSVLQKQQHDLMETVNNLLTMMSTSNSAKDPTVAKEEQISFRDCAEVFKSGHTTNGIYTLTFPNSTEEIKAYCDMEAGGGGWTIIQRREDGSVDFQRTWKEYKVGFGNPSGEYWLGNEFVSQLTNQQRYVLKIHLKDWEGNEAYSLYEHFYLSSEELNYRIHLKGLTGTAGKISSISQPGNDFSTKDGDNDKCICKCSQMLTGGWWFDACGPSNLNGMYYPQRQNTNKFNGIKWYYWKGSGYSLKATTMMIRPADF
# Variants of: B1
# Conditions: with tie2_human TEK
row,Variant,effect of a mutation on the interaction
1,K468E;K473E,disrupting interaction
2,F469A;Y475A;Y476A,disrupting interaction
